The values below come from IntAct's records for PubMed 16615911.

The chains are these.
B1: E3 ubiquitin-protein ligase SIAH1A (Mus musculus), P61092 (parent)
chain: MSRQTATALPTGTSKCPPSQRVPALTGTTASNNDLASLFECPVCFDYVLPPILQCQSGHLVCSNCRPKLTCCPTCRGPLGSIRNLAMEKVANSVLFPCKYASSGCEITLPHTEKAEHEELCEFRPYSCPCPGASCKWQGSLDAVMPHLMHQHKSITTLQGEDIVFLATDINLPGAVDWVMMQSCFGFHFMLVLEKQEKYDGHQQFFAIVQLIGTRKQAENFAYRLELNGHRRRLTWEATPRSIHEGIATAIMNSDCLVFDTSIAQLFAENGNLGINVTISMC
partner: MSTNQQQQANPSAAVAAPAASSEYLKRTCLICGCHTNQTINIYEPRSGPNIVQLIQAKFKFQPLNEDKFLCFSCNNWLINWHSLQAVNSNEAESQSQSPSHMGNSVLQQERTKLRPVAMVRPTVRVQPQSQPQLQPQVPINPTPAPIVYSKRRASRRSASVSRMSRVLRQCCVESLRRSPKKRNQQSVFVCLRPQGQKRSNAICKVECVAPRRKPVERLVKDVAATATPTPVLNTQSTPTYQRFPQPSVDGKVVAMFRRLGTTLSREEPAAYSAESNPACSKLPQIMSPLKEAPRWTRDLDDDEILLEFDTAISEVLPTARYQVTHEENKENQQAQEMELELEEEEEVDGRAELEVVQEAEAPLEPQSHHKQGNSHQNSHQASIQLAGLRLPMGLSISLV

Variants of B1 are the subject of the test. The conditions noted are these: with phyl_drome phyl.
In the case of L158D, the “effect of a mutation on the interaction” value is reported as “disrupting interaction strength”.

Take M180K: the “effect of a mutation on the interaction” value is given as “disrupting interaction”.
